We go through nine sequences from the supplement of paper PMC10065799, “High-throughput profiling of sequence recognition by tyrosine kinases and SH2 domains using bacterial peptide display” (eLife, 2023).

In one data set the target is Grb2 SH2 (UniProt P62993). Nature of the data set: SH2 binding enrichment of the phosphorylated peptide, bacterial display (enrichment ratio); higher = better substrate or ligand; peptides without Tyr show the background.
The next data set deals with c-Src SH2. The data set is described as above.
The target in a further data set is SHP2-C SH2. The data set is described as above.
In another data set the target is Hck (UniProt P08631). Kind of data set: phosphorylation enrichment, bacterial display (enrichment ratio); higher = better substrate or ligand; peptides without Tyr show the background.
Hck, sequence (P08631 whole entry, looked up): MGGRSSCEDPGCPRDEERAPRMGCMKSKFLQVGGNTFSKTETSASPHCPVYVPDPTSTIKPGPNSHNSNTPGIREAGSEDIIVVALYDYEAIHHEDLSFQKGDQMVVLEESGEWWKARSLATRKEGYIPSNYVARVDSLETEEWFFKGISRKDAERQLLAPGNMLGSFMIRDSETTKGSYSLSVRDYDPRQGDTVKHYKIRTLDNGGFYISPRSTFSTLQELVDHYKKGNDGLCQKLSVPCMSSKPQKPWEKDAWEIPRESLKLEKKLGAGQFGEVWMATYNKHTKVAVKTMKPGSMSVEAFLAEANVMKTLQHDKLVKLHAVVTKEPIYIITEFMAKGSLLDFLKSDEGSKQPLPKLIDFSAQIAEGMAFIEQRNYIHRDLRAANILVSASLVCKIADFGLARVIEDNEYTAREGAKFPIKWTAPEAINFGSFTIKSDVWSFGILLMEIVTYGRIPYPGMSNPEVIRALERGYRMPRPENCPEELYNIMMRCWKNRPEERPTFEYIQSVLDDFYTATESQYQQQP
The next data set deals with c-Src. The description is as above.
The next data set deals with Jak2 (UniProt O60674). The data set is described as above.
For the next data set, the target named is FGFR3 (UniProt P22607). Described as above.
FGFR3, sequence (P22607 whole entry, looked up): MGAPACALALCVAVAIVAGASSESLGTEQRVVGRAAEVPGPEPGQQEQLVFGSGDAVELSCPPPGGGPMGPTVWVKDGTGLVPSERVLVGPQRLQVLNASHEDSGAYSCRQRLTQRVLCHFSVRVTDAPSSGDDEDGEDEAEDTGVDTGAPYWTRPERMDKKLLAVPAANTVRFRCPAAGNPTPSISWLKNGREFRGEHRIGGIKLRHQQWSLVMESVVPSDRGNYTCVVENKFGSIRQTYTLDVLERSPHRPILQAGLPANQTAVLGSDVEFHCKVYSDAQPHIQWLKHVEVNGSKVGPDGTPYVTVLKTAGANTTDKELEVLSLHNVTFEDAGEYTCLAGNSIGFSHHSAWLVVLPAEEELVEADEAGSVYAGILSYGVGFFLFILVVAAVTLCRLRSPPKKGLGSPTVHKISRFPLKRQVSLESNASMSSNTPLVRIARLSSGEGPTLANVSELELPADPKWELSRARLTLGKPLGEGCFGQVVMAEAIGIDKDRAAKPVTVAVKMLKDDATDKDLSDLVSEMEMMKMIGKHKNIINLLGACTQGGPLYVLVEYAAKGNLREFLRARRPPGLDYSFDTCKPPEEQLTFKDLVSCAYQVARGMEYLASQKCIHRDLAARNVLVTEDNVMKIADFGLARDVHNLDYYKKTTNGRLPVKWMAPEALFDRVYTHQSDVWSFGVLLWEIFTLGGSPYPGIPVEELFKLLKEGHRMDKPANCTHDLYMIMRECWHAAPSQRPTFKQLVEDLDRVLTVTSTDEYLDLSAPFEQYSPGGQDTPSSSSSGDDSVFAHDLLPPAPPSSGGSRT
The next data set addresses EPHB2 (UniProt P29323). The description is as above.
In the next data set the test system is c-Abl (mouse). Described as above.
In a further data set the test system is AncSZ. The description is as above.
The target in another data set is Fes (UniProt P07332). Described as above.
Fes, sequence (P07332 whole entry, looked up): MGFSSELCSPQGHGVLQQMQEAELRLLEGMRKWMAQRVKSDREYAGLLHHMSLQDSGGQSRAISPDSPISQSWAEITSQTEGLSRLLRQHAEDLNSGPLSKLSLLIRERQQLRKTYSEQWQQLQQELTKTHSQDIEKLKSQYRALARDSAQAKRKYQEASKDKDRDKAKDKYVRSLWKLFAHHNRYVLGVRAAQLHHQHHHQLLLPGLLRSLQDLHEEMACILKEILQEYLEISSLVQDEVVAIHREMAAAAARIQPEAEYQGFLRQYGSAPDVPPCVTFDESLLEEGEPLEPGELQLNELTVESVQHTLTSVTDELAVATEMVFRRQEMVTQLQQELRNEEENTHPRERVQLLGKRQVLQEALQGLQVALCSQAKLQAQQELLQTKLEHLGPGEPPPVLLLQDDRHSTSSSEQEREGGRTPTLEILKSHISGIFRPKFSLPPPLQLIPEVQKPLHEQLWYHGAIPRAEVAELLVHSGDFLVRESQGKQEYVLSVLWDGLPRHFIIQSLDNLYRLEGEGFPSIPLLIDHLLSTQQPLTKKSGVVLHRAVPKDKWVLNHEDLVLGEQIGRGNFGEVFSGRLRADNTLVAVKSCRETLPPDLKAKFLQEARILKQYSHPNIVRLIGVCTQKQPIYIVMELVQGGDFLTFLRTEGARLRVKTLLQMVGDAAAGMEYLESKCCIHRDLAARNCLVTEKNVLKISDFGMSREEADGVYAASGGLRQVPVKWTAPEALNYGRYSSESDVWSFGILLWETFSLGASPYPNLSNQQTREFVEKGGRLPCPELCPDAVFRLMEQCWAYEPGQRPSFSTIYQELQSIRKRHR
The target in another data set is Fyn (UniProt P06241). Described as above.
Fyn, sequence (P06241 whole entry, looked up): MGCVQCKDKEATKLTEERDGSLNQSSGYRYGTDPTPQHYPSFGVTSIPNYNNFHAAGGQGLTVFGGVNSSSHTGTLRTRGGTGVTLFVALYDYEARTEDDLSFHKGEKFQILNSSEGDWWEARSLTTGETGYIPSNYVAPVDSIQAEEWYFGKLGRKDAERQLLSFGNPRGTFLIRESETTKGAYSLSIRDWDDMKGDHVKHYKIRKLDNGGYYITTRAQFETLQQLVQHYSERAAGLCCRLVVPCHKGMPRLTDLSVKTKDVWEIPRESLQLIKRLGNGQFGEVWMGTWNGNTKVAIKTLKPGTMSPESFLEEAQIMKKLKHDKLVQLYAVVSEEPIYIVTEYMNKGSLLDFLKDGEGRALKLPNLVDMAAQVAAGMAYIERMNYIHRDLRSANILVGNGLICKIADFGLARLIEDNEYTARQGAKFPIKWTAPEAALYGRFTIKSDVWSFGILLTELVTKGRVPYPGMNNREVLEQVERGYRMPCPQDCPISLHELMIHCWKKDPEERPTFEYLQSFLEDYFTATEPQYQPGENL
A further data set concerns the target MERTK (UniProt Q12866). The description is as above.
The next data set concerns the target EPHB1 (UniProt P54762). Described as above.
For the next data set, the target named is FGFR1 (UniProt P11362). The data set is described as above.
A further data set has as its system Fer (mouse). The description is as above.
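For SH2 binding enrichment of the phosphorylated peptide, bacterial display in this document: peptide library displayed on the E. coli surface as eCPX fusions, selected cells deep-sequenced, score is each peptide's frequency after selection divided by its frequency in the input.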
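For phosphorylation enrichment, bacterial display in this document: 11-residue human phosphosite peptides and single-mutation variants displayed on the E. coli surface, counted by deep sequencing, each peptide's frequency after selection divided by its frequency in the unselected input library; frequency after pTyr selection over input frequency; kinase dosed for 20-30% of maximal phosphorylation in three min.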

EPHB1, sequence (P54762 whole entry, looked up): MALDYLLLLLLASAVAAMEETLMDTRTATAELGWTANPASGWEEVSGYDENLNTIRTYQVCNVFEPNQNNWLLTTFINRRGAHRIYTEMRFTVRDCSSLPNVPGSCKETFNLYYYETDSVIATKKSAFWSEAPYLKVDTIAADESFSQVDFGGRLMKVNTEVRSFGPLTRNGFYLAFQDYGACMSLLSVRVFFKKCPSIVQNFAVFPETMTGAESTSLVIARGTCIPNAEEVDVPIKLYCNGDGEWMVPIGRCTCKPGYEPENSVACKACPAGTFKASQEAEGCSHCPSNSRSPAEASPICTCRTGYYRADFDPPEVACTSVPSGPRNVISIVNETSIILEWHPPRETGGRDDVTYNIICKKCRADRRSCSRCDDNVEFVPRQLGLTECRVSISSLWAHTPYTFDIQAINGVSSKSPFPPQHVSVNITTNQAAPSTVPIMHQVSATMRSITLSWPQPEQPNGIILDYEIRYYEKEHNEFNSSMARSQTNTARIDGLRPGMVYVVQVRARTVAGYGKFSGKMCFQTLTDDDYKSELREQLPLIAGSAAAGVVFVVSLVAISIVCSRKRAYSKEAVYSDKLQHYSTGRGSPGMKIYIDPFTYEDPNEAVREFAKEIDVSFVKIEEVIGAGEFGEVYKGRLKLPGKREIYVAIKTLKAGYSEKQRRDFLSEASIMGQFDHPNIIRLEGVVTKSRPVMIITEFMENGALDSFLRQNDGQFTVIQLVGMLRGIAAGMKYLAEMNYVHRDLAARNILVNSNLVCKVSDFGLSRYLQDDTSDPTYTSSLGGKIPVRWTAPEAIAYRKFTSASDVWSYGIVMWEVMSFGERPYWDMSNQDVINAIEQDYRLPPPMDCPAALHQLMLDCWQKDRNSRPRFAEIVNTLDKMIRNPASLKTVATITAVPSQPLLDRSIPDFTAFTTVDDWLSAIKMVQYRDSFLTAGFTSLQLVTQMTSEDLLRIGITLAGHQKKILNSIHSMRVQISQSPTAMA
Grb2 SH2, sequence (P62993 whole entry, looked up): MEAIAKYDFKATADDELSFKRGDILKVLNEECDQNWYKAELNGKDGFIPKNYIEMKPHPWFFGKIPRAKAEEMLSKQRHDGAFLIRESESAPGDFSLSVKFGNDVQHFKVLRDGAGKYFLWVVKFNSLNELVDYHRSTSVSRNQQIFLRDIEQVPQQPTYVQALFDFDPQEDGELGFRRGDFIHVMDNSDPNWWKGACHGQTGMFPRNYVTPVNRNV
MERTK, sequence (Q12866 whole entry, looked up): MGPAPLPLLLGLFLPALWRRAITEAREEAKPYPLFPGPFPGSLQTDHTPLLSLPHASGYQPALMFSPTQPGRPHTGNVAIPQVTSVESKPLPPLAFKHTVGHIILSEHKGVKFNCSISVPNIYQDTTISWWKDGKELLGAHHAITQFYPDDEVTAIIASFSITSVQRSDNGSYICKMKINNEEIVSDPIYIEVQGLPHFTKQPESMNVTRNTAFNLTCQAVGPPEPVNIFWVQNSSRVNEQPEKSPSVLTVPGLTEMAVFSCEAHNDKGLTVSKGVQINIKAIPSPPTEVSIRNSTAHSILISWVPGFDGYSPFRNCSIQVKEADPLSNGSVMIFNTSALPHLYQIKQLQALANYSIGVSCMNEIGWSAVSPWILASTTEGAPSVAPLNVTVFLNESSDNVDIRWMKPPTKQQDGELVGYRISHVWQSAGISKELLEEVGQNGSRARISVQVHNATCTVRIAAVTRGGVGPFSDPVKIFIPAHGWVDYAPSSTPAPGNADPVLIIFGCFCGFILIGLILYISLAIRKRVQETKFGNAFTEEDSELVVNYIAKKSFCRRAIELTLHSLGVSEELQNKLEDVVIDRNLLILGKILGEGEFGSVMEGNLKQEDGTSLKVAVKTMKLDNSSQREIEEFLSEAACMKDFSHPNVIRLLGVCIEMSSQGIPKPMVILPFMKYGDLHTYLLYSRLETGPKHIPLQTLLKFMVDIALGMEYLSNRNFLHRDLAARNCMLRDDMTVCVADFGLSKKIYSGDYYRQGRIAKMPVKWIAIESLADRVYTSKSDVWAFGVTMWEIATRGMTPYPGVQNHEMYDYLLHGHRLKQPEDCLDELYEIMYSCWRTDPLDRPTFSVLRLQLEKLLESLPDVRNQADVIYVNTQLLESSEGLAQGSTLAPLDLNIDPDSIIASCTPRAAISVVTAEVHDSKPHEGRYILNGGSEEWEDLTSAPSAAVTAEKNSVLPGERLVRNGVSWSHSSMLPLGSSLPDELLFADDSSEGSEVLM

Take VATRWYPSPEL [CDKL5_Y177_R178P]: the SH2 binding enrichment with Grb2 SH2 worked out at 1.23; with c-Src SH2 it was 0.907; in the data set with SHP2-C SH2, 0.794. For the same sequence, the phosphorylation enrichment with Hck is 0.504; in the data set with c-Src, 0.473; in the data set with Jak2 it was 0.763; in the data set with FGFR3 it was 0.541; with EPHB2, 0.517; in the data set on c-Abl (mouse), 0.696. Moreover, the phosphorylation enrichment in the data set on AncSZ came out at 0.891; with Fes, 0.953; with Fyn it was 0.439; with MERTK, 0.522; with EPHB1, 0.577; with FGFR1, 0.437. Moreover, the phosphorylation enrichment in the data set with Fer (mouse) turned out to be 0.289.
Turning to VAVTKYCKEEF [ATP7B_Y1078_L1083F], the SH2 binding enrichment in the data set with Grb2 SH2 amounted to 0.862; in the data set with c-Src SH2, 0.501; in the data set with SHP2-C SH2 it was 0.598. In addition, the phosphorylation enrichment was found to be 0.458 with Hck; 0.462 in the data set on c-Src; 0.959 with Jak2; 0.624 in the data set with FGFR3; 0.568 with EPHB2; 0.707 in the data set with c-Abl (mouse). The phosphorylation enrichment in the data set on AncSZ was 0.887; with Fes, 1.05; with Fyn it was 0.459; with MERTK it was 0.357; in the data set with EPHB1, 0.605; in the data set with FGFR1 it was 0.563. Besides, in the data set with Fer (mouse), the phosphorylation enrichment stood at 0.487.
In the case of VDDQIYYFRKP [PBRM1_Y1289_E1287Q], the figures for the SH2 binding enrichment in the data set with Grb2 SH2, in the data set with c-Src SH2 and with SHP2-C SH2 were 0.746, 0.487 and 0.825, respectively. The phosphorylation enrichment was 8.88 with Hck; 6.28 in the data set on c-Src; 2.07 with Jak2; 7.78 in the data set with FGFR3; 0.98 in the data set with EPHB2; 12.8 in the data set on c-Abl (mouse). The phosphorylation enrichment in the data set on AncSZ worked out at 2.93; with Fes it was 1.23; with Fyn, 8.3; in the data set with MERTK, 5.41; in the data set with EPHB1, 1.08; with FGFR1 it was 8.8. In addition, in the data set with Fer (mouse), the phosphorylation enrichment was found to be 1.75.
With VDGSVYKLPPS [GCK_Y413_H416P], the values for the SH2 binding enrichment in the data set with Grb2 SH2, with c-Src SH2 and with SHP2-C SH2 were 0.744, 0.426 and 0.525, respectively. For the same sequence, the phosphorylation enrichment with Hck was found to be 0.61; in the data set with c-Src, 1.46; in the data set with Jak2, 0.598; with FGFR3, 0.492; with EPHB2, 0.563; with c-Abl (mouse), 0.661. Also, the phosphorylation enrichment in the data set on AncSZ is 0.728; with Fes, 0.795; with Fyn, 2.81; with MERTK, 0.5; with EPHB1, 0.429; with FGFR1, 0.523. Besides, in the data set with Fer (mouse), the phosphorylation enrichment is 0.514.
As for VECHLYFTQPK [AKR1D1_Y199_P198L], the SH2 binding enrichment with Grb2 SH2 is 0.801; with c-Src SH2, 0.374; with SHP2-C SH2, 0.867. Moreover, the phosphorylation enrichment in the data set with Hck was 0.631; in the data set on c-Src it was 0.91; with Jak2, 1.58; with FGFR3, 0.946; in the data set with EPHB2, 0.663; in the data set with c-Abl (mouse), 1.02. Besides, the phosphorylation enrichment in the data set with AncSZ was determined as 1.42; in the data set with Fes, 1.33; with Fyn, 0.588; with MERTK, 0.556; in the data set with EPHB1 it was 0.717; in the data set with FGFR1, 0.493. In addition, the phosphorylation enrichment in the data set with Fer (mouse) worked out at 0.645.
On to VERIHYIGQNE [HMOX2_Y140], for which the results for the SH2 binding enrichment in the data set with Grb2 SH2, in the data set with c-Src SH2 and in the data set with SHP2-C SH2 were 1.08, 0.437 and 0.972, respectively. Besides, the phosphorylation enrichment in the data set with Hck worked out at 0.453; with c-Src it was 0.368; with Jak2 it was 0.553; with FGFR3 it was 0.381; with EPHB2, 0.47; in the data set on c-Abl (mouse) it was 0.344. The phosphorylation enrichment is 0.617 in the data set on AncSZ; 0.638 with Fes; 0.494 with Fyn; 0.522 in the data set with MERTK; 0.351 with EPHB1; 0.555 with FGFR1. Further, in the data set on Fer (mouse), the phosphorylation enrichment came out at 0.434.
On to VGAKTYKMSMA [CPS1_Y309_A304V], for which the results for the SH2 binding enrichment with Grb2 SH2, with c-Src SH2 and in the data set with SHP2-C SH2 were 0.725, 0.408 and 0.421, respectively. Further, the phosphorylation enrichment with Hck came to 0.307; in the data set on c-Src, 0.498; with Jak2, 0.511; in the data set with FGFR3, 0.382; with EPHB2 it was 0.326; in the data set with c-Abl (mouse), 0.57. The phosphorylation enrichment with AncSZ is 0.645; with Fes, 0.524; with Fyn it was 0.399; with MERTK, 0.428; with EPHB1 it was 0.437; with FGFR1 it was 0.367. In addition, the phosphorylation enrichment in the data set on Fer (mouse) was 0.268.
Regarding VGNAAYQAGPL [STK36_Y1181], the SH2 binding enrichment with Grb2 SH2 is 0.774; in the data set with c-Src SH2, 0.42; with SHP2-C SH2, 0.499. Besides, the phosphorylation enrichment in the data set with Hck stood at 0.378; with c-Src, 0.429; with Jak2, 0.592; with FGFR3, 0.472; in the data set with EPHB2, 0.437; in the data set with c-Abl (mouse), 0.531. Besides, the phosphorylation enrichment was 0.553 in the data set on AncSZ; 0.556 with Fes; 0.458 in the data set with Fyn; 0.386 in the data set with MERTK; 0.358 in the data set with EPHB1; 0.407 with FGFR1. For the same sequence, the phosphorylation enrichment with Fer (mouse) was 0.392.
Regarding VHNLDYYKKTT [FGFR3_Y647], the results for the SH2 binding enrichment in the data set with Grb2 SH2, with c-Src SH2 and in the data set with SHP2-C SH2 were 0.796, 0.389 and 0.556, respectively. Also, the phosphorylation enrichment with Hck was 0.408; in the data set on c-Src, 0.371; in the data set with Jak2, 0.469; in the data set with FGFR3, 0.771; with EPHB2, 0.474; with c-Abl (mouse), 0.443. Further, the phosphorylation enrichment amounted to 0.527 in the data set with AncSZ; 0.624 in the data set with Fes; 0.39 with Fyn; 0.414 with MERTK; 0.428 with EPHB1; 0.369 with FGFR1. In the data set with Fer (mouse), the phosphorylation enrichment worked out at 0.394.
